Laboratory results reported in patent US20260152571A1.

Tests used:
[1] = target: HLA-A2 on T2 cells without added peptide (human); assay: flow cytometry, T2 cells without peptide, antibody 10 µg/mL
[2] = target: WT1RMF/HLA-A2 complex on cells (human); assay: flow cytometry, T2 cells pulsed with 25 µM WT1RMF, antibody 10 µg/mL
[3] = target: PIGQ/HLA complex on PIGQ-pulsed T2 cells (human); assay: flow cytometry, T2 cells pulsed with 25 µM PIGQ peptide, antibody 10 µg/mL
[4] = target: MED13L/HLA complex on MED13L-pulsed T2 cells (human); assay: flow cytometry, T2 cells pulsed with 25 µM MED13L peptide, antibody 10 µg/mL

ISO (antibody)
Percentage of Positive Cells (%) [1]: 5.43% | Percentage of Positive Cells (%) [2]: 4.93% | Percentage of Positive Cells (%) [3]: 4.78% | Percentage of Positive Cells (%) [4]: 5.38%
